Data taken from US20230391854A1 (Innovent, published 2023).

Legend:
[1] = target: Biotin-ncov RBD (KACTUS, COV-VM4BDB) (SARS-CoV-2, UniProt P0DTC2 319-537); test: ELISA blocking assay: antibody titrated from 900 nM, blocks biotin-RBD (200 ng/mL) binding to coated ACE2-Fc
[2] = target: SARS-CoV-2 euvirus S protein (SARS-CoV-2, UniProt P0DTC2 14-1273); test: cell-based or functional assay

Binder	IC50 [1]	EC50, neutralization of SARS-CoV-2 euvirus infection of VERO-E6 cells (CPE, day 4) [2]
P15-16 (antibody, V domains shown, also called candidate antibody molecule P15-16) VH: QVQLVESGGGLVQPGRSLTLSCAASGFTFDDYAMHWVRQAPGKGLEWVSGISWNSGTIDYADSVKGRFTISRDNAKNSLYLQMNSLRAEDTALYYCATLPRERAYSGYDRIFYTIDVWGQGTTVTVSS VL: not shown	1.39 nM	–
P14-37 (antibody, V domains shown, also called candidate antibody molecule P14-37) VH: EVQLVESGGGLVKPGGSLRLSCAASGFTFSNAWMSWVRQAPGKGLEWVGRIKRNSDGGTTDHAAPVTGRFIISRDDSKNTLYLQMNSLRTEDTAVYYCTTDLDTVVRRVVITDHDAFDIWGQGTMVTVSS VL: DIQMTQSPSSLSASVGDRVTITCRASQSISSFLNWYQQKAGKAPKLLIYAASSLQSGVPSRFSGSGSGTDFSLTISNLQPEDFATYYCQQSYSTPSITFGQGTRLEIK	1.14 nM	–
P3-11 (antibody, V domains shown, also called candidate antibody molecule P3-11) VH: QVQLVESGGGLVQPGGSLRLSCAASGITVSSNYMSWVRQAPGKGLEWVSVIYSGGSTFYADPVKGRLTISRDNSKNTLYLQMNSVRVEDTAVYYCARGEGWELPFDYWGQGALVTVSS VL: QSALTQPPSASGSPGQSVTISCTGTSSDVGGNKYVSWYQQHPGKAPKLIIYEVSKRPSGVPDRFSGSKSGNTASLTVSGLQAEDEADYHCSSYAGSNNLVFGGGTKLTVL	1.1 nM	0.195 µg/mL
P10-20 (antibody, V domains shown, also called candidate antibody molecule P10-20) VH: QVQLVESGGGLVKPGGSLRLSCAASGFTFSDYYMSWIRQAPGKGLEWVSYISISSTYTNYADSVKGRFTISRDNAKNSLYLQMNSLRAEDTAVYYCVIAAAGKGHYYYGMDVWGQGTTVTVSS VL: not shown	0.957 nM	~0.0752 µg/mL
P23-29 (antibody, V domains shown, also called candidate antibody molecule P23-29) VH: QVQLQESGPGLVKPSETLSLTCTVSGDSISSSTYYWGWIRQPPGKGLEWIGSMYYGRSTYYNPSLKSRVTVSVDTSKNQLSLKVSSVTAADTAVYYCARHLGGVDYWGQGTLVTVSS VL: DIQMTQSPSSLSASVGDRVTITCRASQGISNSLAWYQQEPGKAPKLLLYAASTLESGVPSRFSGSGSGADSTLTISSLQPEDFATYYCQQYYSASALTFGGGTKVEIK	1.2 nM	0.0488 µg/mL
P14-44 (antibody, V domains shown, also called candidate antibody molecule P14-44) VH: QVQLVQSGAEVKKPGASVKVSCKASGYIFTSYSMHWVRQAPGQGLEWMGTIKPSDDSTNYAQKFQGRVSMTRDTSTSTVYMELSSLRYEDTAVYYCAREARGYYDRSGYYHPGYFDYWGQGTLVTVSS VL: QSVLTQPASVSGSPGQSITISCTGTSSDVGGYNFVSWYQQHPGKAPKLMIYEVSDRPSGVSSRFSGSKSGNTASLTISGLQAEDEADYYCFSYTTSTTWVFGGGTKLTVL	0.863 nM	0.708 µg/mL
P5-22 (antibody, V domains shown, also called candidate antibody molecule P5-22) VH: EVQLVESGGGLVKPGGSLRLSCAASGFTFRDYDIIWIRQAPGKGLEWVSYISRSGSTIYYSDSVRGRFTISRDNAKNSVYLQMNSLRAEDTAVYYCARDFGFEGPRMDVWGQGTTVTVSS VL: DIQMTQSPSSLSASVGDRVTITCQASQDIKNYLNWYQQKPGKAPKLLIYDASNLETGVPSRFSGSGSGTDFTFTISSLQPEDIATYYCQQFDNLPITFGQGTRLEIK	1.08 nM	0.00657 µg/mL
